Experimental data published in publication doi:10.1101/2020.05.27.119388 (bioRxiv, 2020).

Target: MYC-LRRK2 (leucine rich repeat kinase 2), wild type (human, UniProt Q5S007 1-2527)
Assay: co-IP

Chain of MYC-LRRK2 (leucine rich repeat kinase 2), wild type (Q5S007 whole entry): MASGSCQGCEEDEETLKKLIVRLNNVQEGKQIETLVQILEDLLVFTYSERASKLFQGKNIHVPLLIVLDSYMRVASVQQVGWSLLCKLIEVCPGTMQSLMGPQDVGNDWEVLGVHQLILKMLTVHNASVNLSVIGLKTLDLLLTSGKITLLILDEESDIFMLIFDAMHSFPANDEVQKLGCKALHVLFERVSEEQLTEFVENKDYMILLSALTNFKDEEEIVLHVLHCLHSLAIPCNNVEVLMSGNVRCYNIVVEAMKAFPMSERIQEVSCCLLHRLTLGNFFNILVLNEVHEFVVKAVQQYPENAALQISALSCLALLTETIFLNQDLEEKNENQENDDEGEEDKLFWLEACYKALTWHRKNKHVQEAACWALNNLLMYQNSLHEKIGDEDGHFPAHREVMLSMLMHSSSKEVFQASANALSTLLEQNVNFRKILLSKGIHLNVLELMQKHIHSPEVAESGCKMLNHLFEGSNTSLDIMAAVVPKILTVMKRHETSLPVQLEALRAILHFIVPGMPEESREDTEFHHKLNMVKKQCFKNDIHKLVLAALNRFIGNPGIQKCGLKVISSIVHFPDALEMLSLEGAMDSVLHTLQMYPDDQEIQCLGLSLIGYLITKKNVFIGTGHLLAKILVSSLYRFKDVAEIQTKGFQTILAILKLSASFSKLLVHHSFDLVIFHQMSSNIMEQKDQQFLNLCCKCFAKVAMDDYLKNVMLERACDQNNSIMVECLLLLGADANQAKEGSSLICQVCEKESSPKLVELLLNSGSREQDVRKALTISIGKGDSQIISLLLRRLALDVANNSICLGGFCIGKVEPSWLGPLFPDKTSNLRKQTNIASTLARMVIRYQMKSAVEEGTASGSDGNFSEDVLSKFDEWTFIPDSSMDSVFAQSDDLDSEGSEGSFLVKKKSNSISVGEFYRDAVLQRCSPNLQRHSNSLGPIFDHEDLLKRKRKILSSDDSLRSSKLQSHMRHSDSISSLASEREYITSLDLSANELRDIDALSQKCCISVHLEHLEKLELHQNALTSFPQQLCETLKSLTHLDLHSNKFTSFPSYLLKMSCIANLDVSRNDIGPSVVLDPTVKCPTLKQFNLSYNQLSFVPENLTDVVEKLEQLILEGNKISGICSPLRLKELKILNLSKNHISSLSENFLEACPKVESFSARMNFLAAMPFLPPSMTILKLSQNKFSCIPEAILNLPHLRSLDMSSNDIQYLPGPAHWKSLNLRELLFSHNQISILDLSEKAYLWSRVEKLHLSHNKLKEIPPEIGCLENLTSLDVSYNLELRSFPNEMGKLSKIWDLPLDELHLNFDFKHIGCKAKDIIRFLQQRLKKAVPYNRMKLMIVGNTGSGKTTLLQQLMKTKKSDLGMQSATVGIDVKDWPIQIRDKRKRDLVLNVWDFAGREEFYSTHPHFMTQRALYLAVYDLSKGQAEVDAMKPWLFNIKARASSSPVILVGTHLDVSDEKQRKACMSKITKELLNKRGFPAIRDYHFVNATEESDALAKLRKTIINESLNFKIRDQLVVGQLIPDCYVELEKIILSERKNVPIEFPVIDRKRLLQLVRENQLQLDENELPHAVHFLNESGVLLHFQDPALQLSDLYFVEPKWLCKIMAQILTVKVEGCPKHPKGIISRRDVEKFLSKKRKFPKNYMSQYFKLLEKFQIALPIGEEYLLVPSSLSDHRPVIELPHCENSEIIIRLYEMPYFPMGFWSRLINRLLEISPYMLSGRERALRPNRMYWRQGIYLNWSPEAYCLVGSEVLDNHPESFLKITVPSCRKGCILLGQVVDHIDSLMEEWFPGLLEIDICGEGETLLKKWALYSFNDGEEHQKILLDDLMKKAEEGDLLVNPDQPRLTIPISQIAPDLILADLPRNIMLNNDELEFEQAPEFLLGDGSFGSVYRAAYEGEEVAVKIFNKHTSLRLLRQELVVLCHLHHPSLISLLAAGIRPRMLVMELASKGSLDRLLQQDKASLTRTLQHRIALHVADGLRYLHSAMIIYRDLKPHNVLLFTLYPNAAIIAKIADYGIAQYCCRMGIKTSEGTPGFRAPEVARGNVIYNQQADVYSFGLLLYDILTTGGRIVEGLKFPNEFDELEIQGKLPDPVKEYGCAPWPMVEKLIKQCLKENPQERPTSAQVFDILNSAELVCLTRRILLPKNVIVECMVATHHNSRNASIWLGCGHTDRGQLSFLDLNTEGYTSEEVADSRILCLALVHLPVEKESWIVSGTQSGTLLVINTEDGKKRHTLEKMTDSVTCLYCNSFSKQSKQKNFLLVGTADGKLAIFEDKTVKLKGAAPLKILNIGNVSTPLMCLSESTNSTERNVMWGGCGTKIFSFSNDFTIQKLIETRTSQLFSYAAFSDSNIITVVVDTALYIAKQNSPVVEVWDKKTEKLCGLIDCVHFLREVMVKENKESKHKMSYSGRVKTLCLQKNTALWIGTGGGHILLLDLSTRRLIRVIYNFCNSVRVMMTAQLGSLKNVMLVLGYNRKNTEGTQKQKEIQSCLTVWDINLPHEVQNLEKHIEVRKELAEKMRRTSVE

binding result: binds
B1: GST-AP2M1, recombinant (natural protein)
chain: MIGGLFIYNHKGEVLISRVYRDDIGRNAVDAFRVNVIHARQQVRSPVTNIARTSFFHVKRSNIWLAAVTKQNVNAAMVFEFLYKMCDVMAAYFGKISEENIKNNFVLIYELLDEILDFGYPQNSETGALKTFITQQGIKSQHQTKEEQSQITSQVTGQIGWRREGIKYRRNELFLDVLESVNLLMSPQGQVLSAHVSGRVVMKSYLSGMPECKFGMNDKIVIEKQGKGTADETSKSGKQSIAIDDCTFHQCVRLSKFDSERSISFIPPDGEFELMRYRTTKDIILPFRVIPLVREVGRTKLEVKVVIKSNFKPSLLAQKIEVRIPTPLNTSGVQVICMKGKAKYKASENAIVWKIKRMAGMKESQISAEIELLPTNDKKKWARPPISMNFEVPFAPSGLKVRYLKVFEPKLNYSDHDVIKWVRYIGRSGIYETRC
